Assay results published in the supplement of paper PMC7877785.
± gives the uncertainty stated by the source.

Assay: self-splicing fitness, log relative to wild type (ln ratio); higher = more splicing; Tetrahymena group I intron in knt gene, E. coli kanamycin selection, DiMSum; sequences stand for … in CUCUCU…GGAGGGAAAAGUUAUCAGGCAUGCACCUGGUAGCUAGUCUUUAAACCAAUAGAUUGCAUCGGUUUAAAAGGCAAGACCGUCAAAUUGCGGGAAAGGGGUCAACAGCCGUUCAGUACCAAGUCUCAGGGGAAACUUUGAGAUGGCCUUGCAAAGGGUAUGGUAAUAAGCUGACGGACAUGGUCCUAACCACGCAGCCAAGUCCUAAGUCAACAGAUCUUCUGUUGAUAUGGAUGCAGUUCACAGACUAAAUGUCGGUCGGGGAAGAUGUAUUCUUCUCAUAAGAUAUAGUCGGACCUCUCCUUAAUGGGAGCUAGCGGAUGAAGUGAUGCAACACUGGAGCCGCUGGGAACUAAUUUGUAUGCGAAAGUAUAUUGAUUAGUUUUGGAGUACUCGUGGUCG
Summary of the method: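 Library with all eight P1ex-region intron nucleotides randomised, intron inside the knt kanamycin-resistance gene on pET-22b(+), in E. coli BL21(DE3). Cells grew overnight at 37°C or 30°C on LB agar with or without 25 μg/mL kanamycin (plus 100 μg/mL carbenicillin, 50 μM IPTG, 0.2% rhamnose), in six replicate transformations. Pooled colonies were amplicon-sequenced on Illumina HiSeq 2500. DiMSum fitness is the error-weighted combination of wild-type-normalised replicate fold changes, kanamycin versus none.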

With CCUCAGCAAUAUUACGAAUU the “self-splicing fitness (ln)” value (30 °C) was -2.53 ± 0.18 and the “self-splicing fitness (ln)” value (37 °C) was -2.13 ± 0.2.

In the case of CCUCAGCAAUAUUACGAGCG, the “self-splicing fitness (ln)” value (30 °C) is reported as -2 ± 0.094 and the “self-splicing fitness (ln)” value (37 °C) is reported as -1.05 ± 0.088.

In the case of CCUCAGCAAUAUUACGCAAC, the “self-splicing fitness (ln)” value (30 °C) is reported as -2.21 ± 0.3 and the “self-splicing fitness (ln)” value (37 °C) is reported as -1.83 ± 0.4.

In the case of CCUCAGCAAUAUUACGCAAU, the “self-splicing fitness (ln)” value (30 °C) is reported as -3.87 ± 0.2 and the “self-splicing fitness (ln)” value (37 °C) is reported as -2.01 ± 0.18.

With CCUCAGCAAUAUUACGCGAU the “self-splicing fitness (ln)” value (30 °C) was -4.95 ± 0.38 and the “self-splicing fitness (ln)” value (37 °C) was -2.63 ± 0.22.

In the case of CCUCAGCAAUAUUACGCUAU, the “self-splicing fitness (ln)” value (30 °C) is reported as -4.26 ± 0.43 and the “self-splicing fitness (ln)” value (37 °C) is reported as -2.22 ± 0.28.

For CCUCAGCAAUAUUACGGAGC, the “self-splicing fitness (ln)” value (30 °C) was -4.55 ± 0.3 and the “self-splicing fitness (ln)” value (37 °C) was -2.91 ± 0.19.

In the case of CCUCAGCAAUAUUACGGCUG, the “self-splicing fitness (ln)” value (30 °C) is reported as -3.84 ± 0.21 and the “self-splicing fitness (ln)” value (37 °C) is reported as -2.36 ± 0.18.

For CCUCAGCAAUAUUACGUAGU, the “self-splicing fitness (ln)” value (30 °C) was -2.16 ± 0.066 and the “self-splicing fitness (ln)” value (37 °C) was -0.762 ± 0.075.

With CCUCAGCAAUAUUACGUCGG the “self-splicing fitness (ln)” value (30 °C) was -3.36 ± 0.16 and the “self-splicing fitness (ln)” value (37 °C) was -2.59 ± 0.19.

With CCUCAGCAAUAUUACGUGCC the “self-splicing fitness (ln)” value (30 °C) was -2.39 ± 0.17 and the “self-splicing fitness (ln)” value (37 °C) was -2.39 ± 0.31.

With CCUCAGCAAUAUUACGUUGG the “self-splicing fitness (ln)” value (30 °C) was -3.17 ± 0.13 and the “self-splicing fitness (ln)” value (37 °C) was -3.24 ± 0.21.

With CCUCAGCAAUAUUACGUUUG the “self-splicing fitness (ln)” value (30 °C) was -1.46 ± 0.093 and the “self-splicing fitness (ln)” value (37 °C) was -2.15 ± 0.14.

For CCUGAGCAAUAUUACGAAAG, the “self-splicing fitness (ln)” value (30 °C) was -2.39 ± 0.22 and the “self-splicing fitness (ln)” value (37 °C) was -2.08 ± 0.23.

With CCUGAGCAAUAUUACGAAUG the “self-splicing fitness (ln)” value (30 °C) was -2.21 ± 0.18 and the “self-splicing fitness (ln)” value (37 °C) was -1.7 ± 0.19.

For CCUGAGCAAUAUUACGAGAG, the “self-splicing fitness (ln)” value (30 °C) was -3.7 ± 0.26 and the “self-splicing fitness (ln)” value (37 °C) was -0.438 ± 0.1.

In the case of CCUGAGCAAUAUUACGAGUU, the “self-splicing fitness (ln)” value (30 °C) is reported as -3.99 ± 0.39.

For CCUGAGCAAUAUUACGAUUA, the “self-splicing fitness (ln)” value (37 °C) was -2.35 ± 0.33.

For CCUGAGCAAUAUUACGCAUU, the “self-splicing fitness (ln)” value (30 °C) was -4.02 ± 0.25 and the “self-splicing fitness (ln)” value (37 °C) was -1.86 ± 0.23.

In the case of CCUGAGCAAUAUUACGCGCA, the “self-splicing fitness (ln)” value (30 °C) is reported as -2.95 ± 0.34 and the “self-splicing fitness (ln)” value (37 °C) is reported as -1.11 ± 0.37.

In the case of CCUGAGCAAUAUUACGCGCG, the “self-splicing fitness (ln)” value (30 °C) is reported as -3.05 ± 0.21 and the “self-splicing fitness (ln)” value (37 °C) is reported as -3.29 ± 0.26.

With CCUGAGCAAUAUUACGCGGA the “self-splicing fitness (ln)” value (30 °C) was -2.9 ± 0.25 and the “self-splicing fitness (ln)” value (37 °C) was -1.17 ± 0.18.

With CCUGAGCAAUAUUACGCUGA the “self-splicing fitness (ln)” value (30 °C) was -2.59 ± 0.31 and the “self-splicing fitness (ln)” value (37 °C) was -2.56 ± 0.35.

With CCUGAGCAAUAUUACGGAUA the “self-splicing fitness (ln)” value (30 °C) was -3.44 ± 0.32 and the “self-splicing fitness (ln)” value (37 °C) was -1.92 ± 0.23.

In the case of CCUGAGCAAUAUUACGGCUG, the “self-splicing fitness (ln)” value (30 °C) is reported as -4.49 ± 0.31 and the “self-splicing fitness (ln)” value (37 °C) is reported as -1.76 ± 0.2.

With CCUGAGCAAUAUUACGGCUU the “self-splicing fitness (ln)” value (30 °C) was -3.73 ± 0.29 and the “self-splicing fitness (ln)” value (37 °C) was -3.02 ± 0.27.

For CCUGAGCAAUAUUACGGUAC, the “self-splicing fitness (ln)” value (30 °C) was -4.34 ± 0.34.

In the case of CCUGAGCAAUAUUACGGUAU, the “self-splicing fitness (ln)” value (30 °C) is reported as -3.02 ± 0.16 and the “self-splicing fitness (ln)” value (37 °C) is reported as -2.61 ± 0.21.

For CCUGAGCAAUAUUACGGUCG, the “self-splicing fitness (ln)” value (30 °C) was -3.95 ± 0.19 and the “self-splicing fitness (ln)” value (37 °C) was -2.97 ± 0.19.

For CCUGAGCAAUAUUACGGUGA, the “self-splicing fitness (ln)” value (30 °C) was -4 ± 0.3 and the “self-splicing fitness (ln)” value (37 °C) was -2.64 ± 0.26.

With CCUGAGCAAUAUUACGGUUA the “self-splicing fitness (ln)” value (30 °C) was -2.13 ± 0.22 and the “self-splicing fitness (ln)” value (37 °C) was -2.96 ± 0.22.

With CCUGAGCAAUAUUACGUCAU the “self-splicing fitness (ln)” value (30 °C) was -3.5 ± 0.15 and the “self-splicing fitness (ln)” value (37 °C) was -2.68 ± 0.18.

With CCUGAGCAAUAUUACGUGAC the “self-splicing fitness (ln)” value (30 °C) was -3.82 ± 0.25 and the “self-splicing fitness (ln)” value (37 °C) was -2.17 ± 0.22.

With CCUGAGCAAUAUUACGUGGU the “self-splicing fitness (ln)” value (30 °C) was -3.09 ± 0.16 and the “self-splicing fitness (ln)” value (37 °C) was -2.94 ± 0.21.

With CCUGAGCAAUAUUACGUGUA the “self-splicing fitness (ln)” value (30 °C) was -3.53 ± 0.2 and the “self-splicing fitness (ln)” value (37 °C) was -2.16 ± 0.2.

In the case of CCUGAGCAAUAUUACGUUGU, the “self-splicing fitness (ln)” value (30 °C) is reported as -3.57 ± 0.2 and the “self-splicing fitness (ln)” value (37 °C) is reported as -2.73 ± 0.23.

In the case of CCUGAGCAAUAUUACGUUUG, the “self-splicing fitness (ln)” value (30 °C) is reported as -3.6 ± 0.22 and the “self-splicing fitness (ln)” value (37 °C) is reported as -2.21 ± 0.18.

For CCUGAGCAAUAUUACGUUUU, the “self-splicing fitness (ln)” value (30 °C) was -3.74 ± 0.23 and the “self-splicing fitness (ln)” value (37 °C) was -2.81 ± 0.25.

With CCUUAGCAAUAUUACGACUC the “self-splicing fitness (ln)” value (30 °C) was -3.05 ± 0.15 and the “self-splicing fitness (ln)” value (37 °C) was -2.49 ± 0.2.

With CCUUAGCAAUAUUACGAGAA the “self-splicing fitness (ln)” value (30 °C) was -2.19 ± 0.38 and the “self-splicing fitness (ln)” value (37 °C) was -2.79 ± 0.47.

For CCUUAGCAAUAUUACGAGCU, the “self-splicing fitness (ln)” value (30 °C) was -4 ± 0.33 and the “self-splicing fitness (ln)” value (37 °C) was -2.74 ± 0.29.

For CCUUAGCAAUAUUACGAUAA, the “self-splicing fitness (ln)” value (30 °C) was -3.53 ± 0.25 and the “self-splicing fitness (ln)” value (37 °C) was -2.88 ± 0.27.

For CCUUAGCAAUAUUACGAUCU, the “self-splicing fitness (ln)” value (30 °C) was -4.14 ± 0.39 and the “self-splicing fitness (ln)” value (37 °C) was -2.88 ± 0.2.
